The source of these data is US20010041790A1.

Where only a bound is given, the exact number is not on record here.

The target of one assay is murine PrPsen (mouse) (UniProt P04925). In words: cell-based or functional assay.
The target in assay [1] is 35S-labeled hamster PrPsen, glycophosphoinositol-negative form (35S-HaPrPsen) (Syrian golden hamster) (UniProt P04273). In words: cell-based or functional assay.

Substance Mo3F4P109-141 (peptide) returned an IC50 of murine PrP conversion in the assay with murine PrPsen (mouse) of 50 µM.

Turning to MoP109-141 (peptide), in assay [1], the IC50 of the hamster PrP conversion reaction came out at 70 µM. This substance also yielded an IC50 of murine PrP conversion with murine PrPsen (mouse) of 50 µM.

For the substance hamster PrP synthetic peptide P113-141, the IC50 of the in vitro conversion in assay [1] was 40 µM.

As to hamster PrP synthetic peptide P115-141, the IC50 of the conversion reaction in assay [1] is 40 µM.

For the substance hamster PrP synthetic peptide P117-141, the IC50 of the conversion reaction in assay [1] turned out to be 80 µM.

Turning to hamster PrP synthetic peptide P119-128, the IC50 of the conversion reaction in assay [1] turned out to be 550 µM.

On to hamster PrP synthetic peptide P119-136, for which the IC50 of the conversion reaction in assay [1] is below 100 µM.

Turning to hamster PrP synthetic peptide P119-141, in assay [1], the IC50 of the conversion reaction worked out at 120 µM.
